T1: A1 domain of tenascin (TNC-A1), immobilized domain of Example 1 (UniProt P24821 1072-1162, limits assumed)
T1 construct: domain: A1; also called TNC-A1 domain
T1 sequence (looked up): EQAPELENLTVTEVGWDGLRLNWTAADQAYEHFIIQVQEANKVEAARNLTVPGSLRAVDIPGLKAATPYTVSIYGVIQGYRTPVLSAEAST

T2: Human TNC-A1 + avi-tag + his6-tag (human, biotinylated in vivo at the avi-tag)
T2 chain: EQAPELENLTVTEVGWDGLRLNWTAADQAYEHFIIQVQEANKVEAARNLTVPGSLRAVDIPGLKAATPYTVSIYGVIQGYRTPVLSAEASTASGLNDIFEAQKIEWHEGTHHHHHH


Experiments:
[1] = target: T3, Extra Domain B of fibronectin (EDB) (UniProt P02751 1266-1356); test: SPR (BIACORE), EDB immobilized on the chip, construct as analyte
T3 construct: domain: Extra Domain B; construct not described; also called fibronectin Ectodomain-B
T3 sequence (P02751 1266-1356 limits assumed): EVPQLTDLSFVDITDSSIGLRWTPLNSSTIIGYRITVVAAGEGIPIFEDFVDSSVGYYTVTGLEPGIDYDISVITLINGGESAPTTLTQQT

[2] = target: T3, Extra Domain B of fibronectin (EDB); test: BIACORE SPR, EDB immobilized on the chip, analyte at 1.56, 3.125 and 6.25 nM
[3] = target: T4, DPPIV expressed on HEK293 or CHO cells (Homo sapiens (Human), UniProt P27487 1-766); test: binding to DPPIV-expressing HEK293 or CHO cells
T4 construct: also called close homologue of FAP

[4] = target: T5, Human FAP ectodomain + poly-lys-tag + his6-tag (human, UniProt Q12884 27-760); test: SPR (ProteOn XPR36), purified Fab, monovalent binding
T5 construct: also called hu FAP

[5] = target: T6, Murine FAP ectodomain + poly-lys-tag + his6-tag (murine, UniProt P97321 27-761); test: as above
T6 construct: also called mu FAP

Cynomolgus FAP = target: T7, Cynomolgus FAP (Cynomolgus); test: as above
T7 construct: construct not described; also called cyno FAP

[6] = target: T1, A1 domain of tenascin (TNC-A1), …; test: SPR (BIACORE), TNC-A1 domain immobilized on the chip
[7] = target: T2, Human TNC-A1 + avi-tag + his6-tag; test: phage display selection and ELISA on biotinylated human TNC-A1
Method: See SEQ ID NO: 59 of Table 5. The antigen was biotinylated in vivo upon expression.
Selections were carried out over 3 rounds using constant antigen concentrations at 100 nM. In round 2, capture of antigen:phage complexes was performed on neutravidin plates instead of streptavidin beads.

[8] = target: T5, Human FAP ectodomain + poly-lys-tag + …; test: first affinity maturation campaign: phage selections, ELISA and BIACORE kinetic screening
[9] = target: T6, Murine FAP ectodomain + poly-lys-tag + …; test: as above
[10] = target: T6, Murine FAP ectodomain + poly-lys-tag + …; test: primary phage selections, ELISA and BIACORE kinetic screening
Method: See SEQ ID NOs: 53 and 55 of Table 5. Prior to selections, the antigens were coated into immunotubes at a concentration of either 10 μg/ml or 5 μg/ml, depending on round of selection.
Specific binders were defined as signals 5× higher than background and were identified by ELISA.
ELISA-positive clones were bacterially expressed as 1 mL cultures in 96-well format and supernatants were subjected to a kinetic screening experiment using BIACORE T100.

binding result [3]	Kd [4] [nM]	Kd [5] [nM]	Kd (Cynomolgus FAP) [nM]	Binder	further results
no binding	0.035	0.436	0.023	29B11 Fab (Fab, V domains shown, also called clone 29B11) VH: EVQLLESGGGLVQPGGSLRLSCAASGFTFSSYAMSWVRQAPGKGLEWVSAIIGSGGITYYADSVKGRFTISRDNSKNTLYLQMNSLRAEDTAVYYCAKGWFGGFNYWGQGTLVTVSS VL: EIVLTQSPGTLSLSPGERATLSCRASQSVTSSYLAWYQQKPGQAPRLLINVGSRRATGIPDRFSGSGSGTDFTLTISRLEPEDFAVYYCQQGIMLPPTFGQGTKVEIK	
no binding	0.034	0.655	0.522	22A3 Fab (Fab, V domains shown, also called clone 22A3) VH: EVQLLESGGGLVQPGGSLRLSCAASGFTFSSYAMSWVRQAPGKGLEWVSAIIGSGSITYYADSVKGRFTISRDNSKNTLYLQMNSLRAEDTAVYYCAKGWFGGFNYWGQGTLVTVSS VL: EIVLTQSPGTLSLSPGERATLSCRASQSVTSSYLAWYQQKPGQAPRLLINVGSRRATGIPDRFSGSGSGTDFTLTISRLEPEDFAVYYCQQGIMLPPTFGQGTKVEIK	

Second part, the binder before the results:

Binder	binding result [3]	Kd [4] [nM]	Kd [5] [nM]	Kd (Cynomolgus FAP) [nM]	further results
L19 IgG (L19 antibody in the human IgG1 format) (antibody, V domains shown, Human IgG1 format; also called the IgG) VH: EVQLLESGGGLVQPGGSLRLSCAASGFTFSSFSMSWVRQAPGKGLEWVSSISGSSGTTYYADSVKGRFTISRDNSKNTLYLQMNSLRAEDTAVYYCAKPFPYFDYWGQGTLVTVSS VL: EIVLTQSPGTLSLSPGERATLSCRASQSVSSSYLAWYQQKPGQAPRLLIYYASSRATGIPDRFSGSGSGTDFTLTISRLEPEDFAVYYCQQTGRIPPTFGQGTKVEIK					Kd [1]: 0.26 nM; Kd [2]: 0.263 nM; koff [2]: 0.000637 s⁻¹; kon [2]: 2.42e+06 M⁻¹ s⁻¹
23C10 Fab (Fab, V domains shown, also called clone 23C10) VH: EVQLLESGGGLVQPGGSLRLSCAASGFTFSSSAMSWVRQAPGKGLEWVSAISTNGNYTYYADSVKGRFTISRDNSKNTLYLQMNSLRAEDTAVYYCAKGWLGNFDYWGQGTLVTVSS VL: EIVLTQSPGTLSLSPGERATLSCRASQSVSRSYLAWYQQKPGQAPRLLIIGASTRATGIPDRFSGSGSGTDFTLTISRLEPEDFAVYYCQQGQVIPPTFGQGTKVEIK	no binding	1.6	0.125	0.99	
F16 Fab fragment (Fab, V domains shown, also called monovalent Fab fragment of F16) VH: EVQLLESGGGLVQPGGSLRLSCAASGFTFSRYGMSWVRQAPGKGLEWVSAISGSGGSTYYADSVKGRFTISRDNSKNTLYLQMNSLRAEDTAVYYCAKAHNAFDYWGQGTLVTVSS VL: SSELTQDPAVSVALGQTVRITCQGDSLRSYYASWYQQKPGQAPVLVIYGKNNRPSGIPDRFSGSSSGNTASLTITGAQAEDEADYYCNSSVYTMPPVVFGGGTKLTVLG					Kd [6]: 50 nM
2F11 Fab (Fab, V domains shown, Fab fragment; also called clone 2F11) VH: not shown VL: EIVLTQSPGTLSLSPGERATLSCRASQSVSSSYLAWYQQKPGQAPRLLIYGASSRATGVPDRFSGSGSGTDFTLTISRLEPEDFAVYYCQQGQYTPPTFGQGTKVEIK					binding result [7]: binds
4B3 Fab (Fab, V domains shown, Fab fragment; also called clone 4B3) VH: not shown VL: EIVLTQSPGTLSLSPGERATLSCRASQSVSSNYLAWYQQKPGQAPRLLIYGAYIRATGIPDRFSGSGSGTDFTLTISRLEPEDFAVYYCQQGQVIPPTFGQGTKVEIK					binding result [8]: binds; binding result [9]: binds
F16 IgG (antibody, V domains shown, The light chain entry is named generally (F16, light chain); also called the IgG molecule; copies: 2 + 2) VH: EVQLLESGGGLVQPGGSLRLSCAASGFTFSRYGMSWVRQAPGKGLEWVSAISGSGGSTYYADSVKGRFTISRDNSKNTLYLQMNSLRAEDTAVYYCAKAHNAFDYWGQGTLVTVSS VL: SSELTQDPAVSVALGQTVRITCQGDSLRSYYASWYQQKPGQAPVLVIYGKNNRPSGIPDRFSGSSSGNTASLTITGAQAEDEADYYCNSSVYTMPPVVFGGGTKLTVL					Kd [6]: 2.6 nM; increase of affinity attributed to bivalency (IgG against Fab) [6]: 20 fold
4B8 Fab (Fab, V domains shown, Fab fragment; also called anti-murine FAP clone 4B8) VH: not shown VL: EIVLTQSPGTLSLSPGERATLSCRASQSVSSSYLAWYQQKPGQAPRLLIYGASSRATGIPDRFSGSGSGTDFTLTISRLEPEDFAVYYCQQGQVIPPTFGQGTKVEIK					binding result [10]: binds

— patent US20110064751A1 (Hoffmann-La Roche, published 2011)
